Assay results: patent publication US11844843 (DYNE THERAPEUTICS, dated 2023)

Key:
recombinant rat TfR1 = target: T1, recombinant rat TfR1 (rat, UniProt Q99376 89-761, limits assumed); assay: ELISA on plate-coated recombinant rat TfR1, fluorescent anti-(H+L) IgG secondary
T1 construct: Recombinant protein coated on ELISA plates
Procedure: Serial dilutions of the Fab were added to plates precoated with recombinant human, cynomolgus monkey, mouse, or rat TfR1. After a short incubation, binding of the Fab was quantified by addition of a fluorescently tagged anti-(H+L) IgG secondary antibody and measurement of fluorescence intensity at 495 nm excitation and 520 nm emission.

[1] = target: T2, recombinant cynomolgus monkey (Macaca fascicularis) TfR1 (cynomolgus monkey (Macaca fascicularis), UniProt Q5RDH6 87-760 (Pongo abelii entry), limits assumed); assay: ELISA on cTfR1, unconjugated Fab, % normalized RFUs
T2 construct: Recombinant protein; also called cTfR1; cyTfR1
T2 chain: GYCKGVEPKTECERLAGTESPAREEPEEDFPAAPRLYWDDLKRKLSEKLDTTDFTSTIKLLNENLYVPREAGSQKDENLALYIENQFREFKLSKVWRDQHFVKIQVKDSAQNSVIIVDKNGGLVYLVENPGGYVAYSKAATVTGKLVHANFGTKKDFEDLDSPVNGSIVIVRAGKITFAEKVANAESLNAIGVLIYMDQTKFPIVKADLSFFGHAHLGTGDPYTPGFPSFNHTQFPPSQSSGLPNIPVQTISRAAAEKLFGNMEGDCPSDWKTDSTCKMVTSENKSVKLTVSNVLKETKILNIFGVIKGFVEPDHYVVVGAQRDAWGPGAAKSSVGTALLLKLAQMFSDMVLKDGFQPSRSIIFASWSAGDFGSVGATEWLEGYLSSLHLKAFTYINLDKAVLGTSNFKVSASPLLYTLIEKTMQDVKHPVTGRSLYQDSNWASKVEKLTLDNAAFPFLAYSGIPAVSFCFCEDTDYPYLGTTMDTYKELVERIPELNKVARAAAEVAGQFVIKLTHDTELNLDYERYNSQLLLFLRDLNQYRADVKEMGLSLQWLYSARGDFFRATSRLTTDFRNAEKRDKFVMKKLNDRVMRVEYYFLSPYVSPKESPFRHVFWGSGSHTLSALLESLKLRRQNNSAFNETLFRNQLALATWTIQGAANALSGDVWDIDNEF

[2] = target: T2, recombinant cynomolgus monkey (Macaca …); assay: ELISA on plate-coated recombinant cTfR1, fluorescent anti-(H+L) IgG-A488 detection, % normalized RFUs
Procedure: To measure binding of humanized anti-TfR antibodies to TfR1, ELISAs were conducted. High binding, black, flat bottom, 96 well plates (Corning #3925) were first coated with 100 μL/well of recombinant huTfR1 at 1 μg/mL in PBS and incubated at 4° C. overnight. Wells were emptied and residual liquid was removed. Blocking was conducted by adding 200 μL of 1% BSA (w/w) in PBS to each well. Blocking was allowed to proceed for 2 hours at room temperature on a shaker at 30) rpm. After blocking, liquid was removed and wells were washed three times with 300 μL of TBST. Anti-TfR1 antibodies were then added in 0.5% BSA/TBST in triplicate in an 8 point serial dilution (dilution range 5 μg/mL-5 ng/mL). A positive control and isotype controls were also included on the ELISA plate. The plate was incubated at room temperature on an orbital shaker for 60 minutes at 300 rpm, and the plate was washed three times with 300 μL of TBST. Anti-(H+L)IgG-A488 (1:500) (Invitrogen #A11013) was diluted in 0.5% BSA in TBST, and 100 μL was added to each well. The plate was then allowed to incubate at room temperature for 60 minutes at 300 rpm on orbital shaker. The liquid was removed and the plate was washed four times with 300 μL of TBST. […] Data was recorded and analyzed for $EC50$. […]

[3] = target: T3, recombinant human TfR1 (transferrin receptor protein 1) (human, UniProt P02786 89-760); assay: Table 14, unconjugated Fab, d9 (after 9 days at 40 C); method not named
T3 construct: Recombinant protein in SPR and ELISA; they were assigned to this molecule; also called hTfR1; huTfR1

[4] = target: T2, recombinant cynomolgus monkey (Macaca …); assay: as above
[5] = target: T3, recombinant human TfR1 (transferrin …); assay: ELISA, recombinant TfR1 coated, unconjugated Fab (row 'Fab binding affinity ELISA')
[6] = target: T2, recombinant cynomolgus monkey (Macaca …); assay: as above
[7] = target: T3, recombinant human TfR1 (transferrin …); assay: ELISA on hTfR1, unconjugated Fab, % normalized RFUs

T1 sequence (Q99376 89-761 limits assumed): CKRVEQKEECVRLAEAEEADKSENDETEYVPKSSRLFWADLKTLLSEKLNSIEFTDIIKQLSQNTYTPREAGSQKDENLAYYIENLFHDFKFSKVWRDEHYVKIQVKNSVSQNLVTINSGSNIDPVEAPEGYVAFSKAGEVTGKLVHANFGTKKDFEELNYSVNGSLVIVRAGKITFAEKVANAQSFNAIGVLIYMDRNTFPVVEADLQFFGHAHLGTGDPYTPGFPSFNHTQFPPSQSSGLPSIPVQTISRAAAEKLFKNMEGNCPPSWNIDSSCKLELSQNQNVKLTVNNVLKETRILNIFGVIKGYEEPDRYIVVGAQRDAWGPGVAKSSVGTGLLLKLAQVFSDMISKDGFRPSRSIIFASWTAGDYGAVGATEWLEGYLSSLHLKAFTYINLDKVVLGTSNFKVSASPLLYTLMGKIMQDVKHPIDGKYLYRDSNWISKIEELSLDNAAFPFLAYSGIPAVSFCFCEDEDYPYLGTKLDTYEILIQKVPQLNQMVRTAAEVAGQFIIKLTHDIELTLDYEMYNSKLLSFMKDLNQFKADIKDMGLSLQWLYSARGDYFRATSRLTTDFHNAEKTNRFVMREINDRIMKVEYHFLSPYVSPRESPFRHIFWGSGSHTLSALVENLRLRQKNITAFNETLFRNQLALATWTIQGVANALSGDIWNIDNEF

binding result (recombinant rat TfR1): no binding (tested: 500 nM)
EC50 [1]: 9.9 nM
EC50 [2]: 9.9 nM
Binding affinity [3]: 0.28 nM
Binding affinity [4]: 16.4 nM
EC50 [5]: 0.5 nM
EC50 [6]: 2.2 nM
EC50 [7]: 2.1 nM
B1: humanized anti-TfR Fab 3M12 VH4/Vκ3 (Fab, V domains shown)
VH: QVQLQESGPGLVKPSQTLSLTCTVTGYSITSGYYWNWIRQPPGKGLEWIGYITFDGANNYNPSLKNRVSISRDTSKNQFSLKLSSVTAEDTATYYCTRSSYDYDVLDYWGQGTTVTVSS
VL: DIQMTQSPSSLSASVGDRVTITCRASQDISNFLNWYQQKPGQPVKLLIYYTSRLHSGVPSRFSGSGSGTDFTLTISSLQPEDFATYYCQQGHTLPYTFGQGTKLEIKR
notes: also called 3M12 (VH4/Vk3); anti-TfR Fab 3M12 VH4/Vk3
